Experimental data from article PMC7838873, “Purification and Characterization of Recombinant Expressed Apple Allergen Mal d 1” (Methods and Protocols, 2020).

B1: recombinant apple allergen Mal d 1 without polyhistidine-tag (natural protein, apple (Malus domestica), UniProt Q9SYW3 1-159, looked up)
chain: MGVYTFENEFTSEIPPSRLFKAFVLDADNLIPKIAPQAIKQAEILEGNGGPGTIKKITFGEGSQYGYVKHRIDSIDEASYSYSYTLIEGDALTDTIEKISYETKLVACGSGSTIKSISHYHTKGNIEIKEEHVKAGKEKAHGLFKLIESYLKDHPDAYN
notes: n = 159 residues used for the CD calculation; pET-28b(+) vector, NcoI/XhoI, insert 485 bp; also called r-Mal d 1; source: E. coli BL21 star (DE3)pLysS, purified (anion-exchange chromatography, TOYOPEARL SuperQ-650S or GigaCap Q-650M)

Tests used:
[1] = molecular target: recombinant apple allergen Mal d 1 with a C-terminal polyhistidine-tag (apple (Malus domestica)) (UniProt Q9SYW3); experiment: SDS-PAGE without added reducing agent + in-gel tryptic digestion with HPLC-MS/MS; purified protein after storage at -20 °C, freeze-thawing or freeze-drying (Tris, phosphate or urea buffer); denatured at 95 °C in SDS Laemmli sample buffer, Coomassie stain, band proportions by Fiji; band of higher molecular weight identified by peptides; dimer survives SDS, probably held by a disulfide bridge
[2] = molecular target: the molecule itself; experiment: as above

Molecule | stoichiometry N [1] | stoichiometry N [2]
recombinant apple allergen Mal d 1 with a C-terminal polyhistidine-tag (from UniProt Q9SYW3 1-159) (natural protein) | 2 | –
B1 | – | 2
